These substances were tested against R0RBR parkin (residues 141–465, lacking Ubl domain and linker) (human) (UniProt O60260) (assay: ITC; 50 μM R0RBR, full-length parkin or phosphoparkin titrated with Ub, Ubl or their variants; 25°C; 50 mM HEPES, 50 mM NaCl, 250 μM TCEP pH 7.5 or 50 mM HEPES, 150 mM NaCl, 0.5 mM TCEP pH 8.0; single-site model).

Substance | Kd [µM] | dH [kcal/mol] | stoichiometry N
parkin Ubl domain S65D (from UniProt O60260 144-465) (domain or fragment) | 5 | -9.08 | 1.03
phosphorylated parkin Ubl domain (domain or fragment) | 26 | -3.82 | 1.04
parkin Ubl domain S65E (domain or fragment) | 5.3 | -11 | 0.98
